These are literature values, as cited in article PMC3760146.

In this series the target is Histone H4 K8ac peptide 1-12 (Homo sapiens) (UniProt P62805). Kind of series: NMR titration.

With P/CAF bromodomain (from UniProt Q92831), the Kd was 346 µM.
